From patent publication US20200040039A1 (FUJIFILM, published 2020)
Positions of bridges follow the written chain, without caps; N, C: chain ends. Non-standard residues stand in square brackets, D forms with d. thiazoline = not defined here

B1: Cyclic peptide a-5-3 (peptide)
peptide: CFALLWPQFLPLAF[3‑(6-cyanopyridin-2-yl)Ala]-NH2
modifications: bridge N-15 via thiazoline; reading uncertain
notes: MS 1821.3 (M+H); Structure itself only in a drawing
B2: Cyclic peptide a-5-1 (peptide)
peptide: CRSWACLWPAFLWY[3‑(6-cyanopyridin-2-yl)Ala]-NH2
modifications: bridge N-15 via thiazoline; cysteine pairing not given here; reading uncertain
notes: MS 1957.6 (M+H); Structure itself only in a drawing
B3: Cyclic peptide a-6-1 (peptide)
peptide: CEYCDPTFWPLFRR[3‑(5-cyanothiophen-3-yl)alanine]-NH2
modifications: bridge N-15 via thiazoline; cysteine pairing not given here; reading uncertain
notes: MS 1993.3 (M+H); Structure itself only in a drawing

Key:
[1] = target: T1, MCL-1 (amino acid 1-172 portion) with a His6 tag, MBP and a TEV protease recognition sequence on the N … (UniProt Q07820 1-172); assay: SPR, Biacore T200, 25 C, Mcl-1 amine-coupled on CM5, peptide as analyte, equilibrium analysis; grade B = KD of 50 µmol/L or more
T1 construct: range 1-172; Expressed in E. coli BL21 (DE3) RIPL, purified on Ni-NTA, dialysed; tags are not reported as removed; Immobilised by amine coupling on a CM5 chip for SPR; A different construct (3xFLAG-tagged, His6/MBP cleaved) was used for panning only; also called target protein; not shown: His6 tag from the pET28a construct; no cleavage is described for this preparation
T1 sequence (Q07820 1-172): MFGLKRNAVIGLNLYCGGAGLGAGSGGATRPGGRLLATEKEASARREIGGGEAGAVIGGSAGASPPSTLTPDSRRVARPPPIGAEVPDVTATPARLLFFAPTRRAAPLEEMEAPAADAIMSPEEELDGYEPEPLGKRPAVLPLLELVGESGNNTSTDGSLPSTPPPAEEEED
Experimental: A buffer obtained by adding dimethylformamide (DMF) or dimethylsulfoxide (DMSO) to a final concentration of 1 vol % to HBS-EP+(manufactured by GE Healthcare Inc.) was used as a running buffer. Mcl-1 was immobilized on a Biacore Sensor Chip Series S Sensor Chip CM5 (manufactured by GE Healthcare Inc.) using an Amine Coupling Kit (manufactured by GE Healthcare Inc.). In order to measure the dissociation constant (KD), each synthetic peptide was added at multiple concentrations to obtain a sensorgram of binding to immobilized Mcl-1.
The analysis of the obtained sensorgram was carried out using T200 evaluation software (manufactured by GE Healthcare Inc.). Solvent correction to DMF or DMSO was carried out, and then the KD was determined by equilibrium value analysis using a sensorgram obtained by subtracting the sensorgram to a flow cell in which Mcl-1 is not immobilized.

[2] = target: T1, MCL-1 (amino acid 1-172 portion) with a …; assay: SPR, Biacore T200, Mcl-1 immobilised on CM5, peptide as analyte, equilibrium analysis, as for Table 51; grade A = KD of less than 50 µmol/L

| Binder | Kd [1] | Kd [2] |
| --- | --- | --- |
| B1 | ≥ 50 µM |  |
| B2 | ≥ 50 µM |  |
| B3 |  | < 50 µM |
